According to patent US20060269549A1 (APPLIED MOLECULAR EVOLUTION, published 2006):
Residue numbers refer to the chain shown, from its start. In names and notes the source's numbering stands. One block for each binder: values may come before it.

Legend:
[1] = target: T1, human TNF-α (human, UniProt P01375 77-233); test: ELISA, Fab dilution series on human TNF-α (Example 1; the filing does not say which of its two ELISA formats: hTNF-α-coated plate, or Fab captured on anti-human kappa with 5 nM biotinylated hTNF-α)
T1 construct: It was biotinylated in some screening assays; also called hTNF-α; hTNF

[2] = target: T1, human TNF-α; test: cell-based or functional assay
[3] = target: T1, human TNF-α; test: KinExA 3000 kinetic exclusion assay
[4] = target: T1, human TNF-α; test: KinExA 3000 kinetic exclusion assay, 40 pM Fab mixed with 400 pM hTNF-α, time course; lower end of the printed range for A10K
Experimental: (§1) Next, binding kinetics of three of the Fab fragments described in Table 4 were determined in a kinetic exclusion assay. Affinity measurements were performed on a KinExA™3000 instrument (Sapidyne Instruments, Inc., Boise, Id.) using Fab fragments (A10K, A9K, and A10P) released from the periplasmic space whose concentration was determined by a quantitative ELISA. Briefly, antigen and antibody fragment were allowed to react in solution and the fraction of unbound reagent was determined by capture and measured on a bead support. Binding kinetics can be determined or calculated from the amount of unbound reagent. For instance, after interaction between TNF-α and a Fab fragment has occurred in solution, binding of the unreacted, free Fab fragment to TNF-α coated beads can be measured on the instrument by detection with a labeled secondary antibody to the Fab fragment (e.g., a goat anti-IgG (heavy and light)). […] After the incubation, the amount of unbound Fab in the equilibrated samples was determined on the KinExA™3000 instrument according to the manufacturer's instructions. Kd values were determined by the instrument software.
(§2) To measure kₒₙ, individual Fab fragments at a concentration of 40 pM were mixed with 400 pM of hTNF-α. […] The resulting data was used to calculate the kₒₙ with the instrument software. koff was calculated by using the formula Kd=koff/kₒₙ.

[5] = target: T1, human TNF-α; test: calculated from Kd = koff/kon (KinExA)
Experimental: (§3) Next, binding kinetics of three of the Fab fragments described in Table 4 were determined in a kinetic exclusion assay. Affinity measurements were performed on a KinExA™3000 instrument (Sapidyne Instruments, Inc., Boise, Id.) using Fab fragments (A10K, A9K, and A10P) released from the periplasmic space whose concentration was determined by a quantitative ELISA. Briefly, antigen and antibody fragment were allowed to react in solution and the fraction of unbound reagent was determined by capture and measured on a bead support. Binding kinetics can be determined or calculated from the amount of unbound reagent. For instance, after interaction between TNF-α and a Fab fragment has occurred in solution, binding of the unreacted, free Fab fragment to TNF-α coated beads can be measured on the instrument by detection with a labeled secondary antibody to the Fab fragment (e.g., a goat anti-IgG (heavy and light)). […] For A10K and A10P, the Fab concentration was 10 pM with the human TNF-α concentration beginning at 160 pM and then serially diluted to 0.078 pM with the final tube containing no human TNF-α. A9K incubation was set in a similar manner, with the Fab at a constant concentration of 20 pM and human TNF-α serially diluted beginning at 500 pM with a final concentration of 0.24 pM. After the incubation, the amount of unbound Fab in the equilibrated samples was determined on the KinExA™3000 instrument according to the manufacturer's instructions. Kd values were determined by the instrument software.
To measure kₒₙ, individual Fab fragments at a concentration of 40 pM were mixed with 400 pM of hTNF-α. A series of measurements were taken over a time course. The resulting data was used to calculate the kₒₙ with the instrument software. koff was calculated by using the formula Kd=koff/kₒₙ.

[6] = target: T1, human TNF-α; test: KinExA 3000 kinetic exclusion assay, periplasmic Fab with hTNF-α in solution, 20 h at 20 C
Experimental: as §3

[7] = target: T1, human TNF-α; test: KinExA 3000 kinetic exclusion assay, 40 pM Fab mixed with 400 pM hTNF-α, time course
Experimental: as §1, §2

T1 sequence (P01375 77-233 limits assumed): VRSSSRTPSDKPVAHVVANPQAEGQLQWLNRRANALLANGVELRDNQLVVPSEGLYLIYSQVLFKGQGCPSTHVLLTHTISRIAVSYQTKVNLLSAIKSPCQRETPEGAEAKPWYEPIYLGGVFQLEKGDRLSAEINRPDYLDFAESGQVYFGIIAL

EC50 (read off the curve) [1]: ~0.02 µg/mL
B1: 2E7K Fab fragment (Fab, name in Kabat numbering, V domains shown)
VH: EVQLVESGGGLVQPGGSLRLSCAASGFKFSNHWMNWVRQAPGKGLEWVGEIRSKSMNSATHYARSVKGRFTISRDDSKNSLYLQMNSLKTEDTAVYYCARNYYGSTYDHWGQGTLVTVSS
VL: EIVLTQSPDFQSVTPKEKVTITCRASQFVGLSIHWYQQKPDQSPKLLIKYASESRSGVPSRFSGSGSGTDFTLTINSLEAEDAATYYCQQSHSWHFTFGQGTKVEIK

EC50, L929 cell protection assay (FIG. 10) [2]: ~2.7 pM
B2: A10K IgG (antibody, V domains shown)
VH: B1 VH with R64E
VL: B1 VL with L31Y

Kd [3]: 0.01 pM | koff [3]: 2.6e-08 s⁻¹ | kon [3]: 2.6e+06 M⁻¹ s⁻¹
B3: AME 3-2 antibody (antibody, V domains shown)
VH: B1 VH with K28T, S30R, M56I, H61F, R64E, T106Y
VL: DIQMTQSPSSLSASVGDRVTITCVTTQFVGYAIHWYQQKPGKAPKLLIYYASSSRSGVPSRFSGSGSGTDFTLTISSLQPEDFATYYCQQSHGWPFTFGQGTKVEIK

EC50 (read off the curve) [1]: ~0.02 µg/mL
B4: A9P Fab fragment (Fab, name in Kabat numbering, V domains shown)
VH: B1 VH with K28P
VL: B1 VL with L31M, R55K

kon [4]: 3.9e+06 to 7.51e+06 M⁻¹ s⁻¹ | koff [5]: 1.96e-05 to 3.76e-05 s⁻¹ | EC50, L929 cell protection assay (FIG. 8) [2]: ~25 pM | EC50, L929 cell protection assay (FIG. 9) [2]: ~67 pM | EC50 (read off the curve) [1]: ~0.02 µg/mL | Kd [6]: 3.5 to 7.2 pM
B5: A10K Fab fragment (Fab, V domains shown)
VH: B1 VH with R64E
VL: B1 VL with L31Y
notes: Fab released from the E. coli periplasm; Mutations against hu1: light S31Y, M55R; heavy T28K, I53M

binding result [1]: binds
B6: hu1 Fab fragment (Fab, V domains shown)
VH: B1 VH with K28T, M56I, R64E
VL: B1 VL with L31S, R55M
notes: Parent Fab with fully human frameworks

EC50 (read off the curve) [1]: ~0.03 µg/mL
B7: 2E7P Fab fragment (Fab, name in Kabat numbering, V domains shown)
VH: B1 VH with K28P
VL: B1 VL

EC50 (read off the curve) [1]: ~0.02 µg/mL
B8: 2C6P Fab fragment (Fab, name in Kabat numbering, V domains shown)
VH: B1 VH with K28P, M56I
VL: B1 VL with S54Y, R55M

koff [5]: 8.2e-06 s⁻¹ | EC50 (read off the curve) [1]: ~0.02 µg/mL | kon [7]: 4.1e+06 M⁻¹ s⁻¹ | Kd [6]: 2 pM
B9: A10P Fab fragment (Fab, name in Kabat numbering, V domains shown)
VH: B1 VH with K28P, R64E
VL: B1 VL with L31Y

koff [5]: 6.2e-06 s⁻¹ | EC50 (read off the curve) [1]: ~0.02 µg/mL | kon [7]: 2.6e+06 M⁻¹ s⁻¹ | Kd [6]: 2.4 pM
B10: A9K Fab fragment (Fab, name in Kabat numbering, V domains shown)
VH: B1 VH
VL: B1 VL with L31M, R55K

EC50 (read off the curve) [1]: ~0.02 µg/mL
B11: 2C6K Fab fragment (Fab, name in Kabat numbering, V domains shown)
VH: B1 VH with M56I
VL: B1 VL with S54Y, R55M
